According to US20250262210A1 (TRUSTEES OF COLUMBIA UNIVERSITY IN THE CITY OF NEW YORK, published 2025):

Experiments:
Experiment in all cases: IP/MS, LZTR1 wild type-FLAG, U87
SLC4A2 = target: T1, SLC4A2 (human, UniProt P04920 1-1241, limits assumed)
T1 sequence (looked up): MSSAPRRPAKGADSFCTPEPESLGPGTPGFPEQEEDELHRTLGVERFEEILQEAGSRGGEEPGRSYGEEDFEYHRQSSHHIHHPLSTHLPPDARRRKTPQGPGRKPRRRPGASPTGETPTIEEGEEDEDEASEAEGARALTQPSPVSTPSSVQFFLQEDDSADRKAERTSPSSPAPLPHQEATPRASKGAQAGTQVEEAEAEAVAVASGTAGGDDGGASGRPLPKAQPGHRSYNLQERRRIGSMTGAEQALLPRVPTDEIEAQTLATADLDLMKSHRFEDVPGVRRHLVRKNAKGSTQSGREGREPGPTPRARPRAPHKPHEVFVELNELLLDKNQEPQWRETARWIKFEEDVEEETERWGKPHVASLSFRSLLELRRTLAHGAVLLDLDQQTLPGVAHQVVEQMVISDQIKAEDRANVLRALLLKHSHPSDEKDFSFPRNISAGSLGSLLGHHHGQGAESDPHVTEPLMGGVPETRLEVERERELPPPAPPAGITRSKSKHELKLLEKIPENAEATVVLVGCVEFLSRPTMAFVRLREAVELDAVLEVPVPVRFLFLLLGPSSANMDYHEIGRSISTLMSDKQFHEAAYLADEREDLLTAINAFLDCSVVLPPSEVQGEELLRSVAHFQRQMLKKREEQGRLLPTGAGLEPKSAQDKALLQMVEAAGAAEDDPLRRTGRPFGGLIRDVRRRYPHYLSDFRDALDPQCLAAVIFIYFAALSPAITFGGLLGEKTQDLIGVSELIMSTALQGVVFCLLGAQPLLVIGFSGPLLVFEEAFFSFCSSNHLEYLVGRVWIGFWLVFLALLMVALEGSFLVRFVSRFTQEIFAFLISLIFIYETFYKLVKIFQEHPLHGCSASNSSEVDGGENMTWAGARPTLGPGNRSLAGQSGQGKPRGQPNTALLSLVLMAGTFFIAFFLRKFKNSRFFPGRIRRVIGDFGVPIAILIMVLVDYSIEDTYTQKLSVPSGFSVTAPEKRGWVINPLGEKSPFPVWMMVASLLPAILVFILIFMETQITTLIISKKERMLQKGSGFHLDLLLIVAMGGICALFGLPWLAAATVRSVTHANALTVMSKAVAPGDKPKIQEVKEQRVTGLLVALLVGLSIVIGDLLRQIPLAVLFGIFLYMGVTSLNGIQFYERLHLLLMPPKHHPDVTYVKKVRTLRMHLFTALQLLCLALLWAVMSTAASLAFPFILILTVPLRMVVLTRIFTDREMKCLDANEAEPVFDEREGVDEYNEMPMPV
In short: (§1)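 Gel slices were reduced with 5 mM DTT, alkylated with 11 mM IAA and digested overnight at 37° C. with trypsin. Peptides were analysed on an Orbitrap Fusion Tribrid by LC-MS/MS.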

ARHGEF28 = ARHGEF28 (human, UniProt Q8N1W1 1-1705, limits assumed)
In short: as §1

HERC2 = HERC2 (human, UniProt O95714 1-4834)
In short: as §1

TTI1 = TTI1 (human, UniProt O43156 1-1089)
In short: as §1

BRCA2 = BRCA2 (human, UniProt P51587 1-3418)
In short: as §1

Measured: binding result

Chain of ARHGEF28 (Q8N1W1 whole entry): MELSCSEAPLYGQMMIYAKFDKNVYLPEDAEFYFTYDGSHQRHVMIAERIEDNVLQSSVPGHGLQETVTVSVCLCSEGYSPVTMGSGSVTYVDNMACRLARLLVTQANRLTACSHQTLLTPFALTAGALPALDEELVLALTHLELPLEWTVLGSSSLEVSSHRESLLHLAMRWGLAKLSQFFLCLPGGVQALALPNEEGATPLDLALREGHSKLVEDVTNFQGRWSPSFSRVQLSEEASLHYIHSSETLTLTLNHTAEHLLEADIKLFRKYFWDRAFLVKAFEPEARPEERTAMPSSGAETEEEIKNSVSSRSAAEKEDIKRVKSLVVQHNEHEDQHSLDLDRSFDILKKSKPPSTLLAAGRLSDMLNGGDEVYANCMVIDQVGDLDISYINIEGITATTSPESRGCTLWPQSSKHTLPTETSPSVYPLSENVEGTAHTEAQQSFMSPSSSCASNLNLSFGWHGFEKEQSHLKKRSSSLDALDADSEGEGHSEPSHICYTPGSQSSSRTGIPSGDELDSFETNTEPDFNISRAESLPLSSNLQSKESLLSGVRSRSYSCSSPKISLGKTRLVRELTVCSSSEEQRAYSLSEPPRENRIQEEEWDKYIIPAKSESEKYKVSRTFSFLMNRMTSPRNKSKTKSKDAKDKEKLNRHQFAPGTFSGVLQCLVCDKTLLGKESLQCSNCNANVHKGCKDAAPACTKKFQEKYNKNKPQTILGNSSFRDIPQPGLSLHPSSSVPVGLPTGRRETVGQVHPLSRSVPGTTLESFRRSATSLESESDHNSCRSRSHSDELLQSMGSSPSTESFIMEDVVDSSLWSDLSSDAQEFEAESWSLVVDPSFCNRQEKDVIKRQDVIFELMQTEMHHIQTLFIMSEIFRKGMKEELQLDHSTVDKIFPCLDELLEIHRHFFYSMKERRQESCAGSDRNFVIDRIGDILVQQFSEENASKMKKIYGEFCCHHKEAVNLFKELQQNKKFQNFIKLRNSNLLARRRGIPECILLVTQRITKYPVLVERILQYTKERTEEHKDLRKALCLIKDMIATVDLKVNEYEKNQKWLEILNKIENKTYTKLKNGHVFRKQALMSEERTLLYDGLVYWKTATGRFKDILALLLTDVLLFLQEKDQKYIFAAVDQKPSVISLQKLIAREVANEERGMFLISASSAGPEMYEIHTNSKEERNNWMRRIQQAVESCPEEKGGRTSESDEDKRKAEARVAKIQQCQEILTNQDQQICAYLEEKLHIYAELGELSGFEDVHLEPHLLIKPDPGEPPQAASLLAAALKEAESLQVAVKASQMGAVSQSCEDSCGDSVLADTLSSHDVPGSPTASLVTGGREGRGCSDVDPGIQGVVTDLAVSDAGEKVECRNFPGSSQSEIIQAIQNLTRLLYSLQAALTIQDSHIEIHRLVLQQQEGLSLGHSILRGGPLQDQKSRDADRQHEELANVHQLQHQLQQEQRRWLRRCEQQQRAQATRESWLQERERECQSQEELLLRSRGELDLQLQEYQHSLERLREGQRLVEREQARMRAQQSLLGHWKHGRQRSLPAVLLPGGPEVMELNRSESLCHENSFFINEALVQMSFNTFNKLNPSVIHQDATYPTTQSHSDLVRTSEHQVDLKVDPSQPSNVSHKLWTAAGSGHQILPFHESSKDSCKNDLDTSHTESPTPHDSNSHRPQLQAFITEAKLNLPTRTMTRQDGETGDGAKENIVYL
Chain of BRCA2 (P51587 whole entry): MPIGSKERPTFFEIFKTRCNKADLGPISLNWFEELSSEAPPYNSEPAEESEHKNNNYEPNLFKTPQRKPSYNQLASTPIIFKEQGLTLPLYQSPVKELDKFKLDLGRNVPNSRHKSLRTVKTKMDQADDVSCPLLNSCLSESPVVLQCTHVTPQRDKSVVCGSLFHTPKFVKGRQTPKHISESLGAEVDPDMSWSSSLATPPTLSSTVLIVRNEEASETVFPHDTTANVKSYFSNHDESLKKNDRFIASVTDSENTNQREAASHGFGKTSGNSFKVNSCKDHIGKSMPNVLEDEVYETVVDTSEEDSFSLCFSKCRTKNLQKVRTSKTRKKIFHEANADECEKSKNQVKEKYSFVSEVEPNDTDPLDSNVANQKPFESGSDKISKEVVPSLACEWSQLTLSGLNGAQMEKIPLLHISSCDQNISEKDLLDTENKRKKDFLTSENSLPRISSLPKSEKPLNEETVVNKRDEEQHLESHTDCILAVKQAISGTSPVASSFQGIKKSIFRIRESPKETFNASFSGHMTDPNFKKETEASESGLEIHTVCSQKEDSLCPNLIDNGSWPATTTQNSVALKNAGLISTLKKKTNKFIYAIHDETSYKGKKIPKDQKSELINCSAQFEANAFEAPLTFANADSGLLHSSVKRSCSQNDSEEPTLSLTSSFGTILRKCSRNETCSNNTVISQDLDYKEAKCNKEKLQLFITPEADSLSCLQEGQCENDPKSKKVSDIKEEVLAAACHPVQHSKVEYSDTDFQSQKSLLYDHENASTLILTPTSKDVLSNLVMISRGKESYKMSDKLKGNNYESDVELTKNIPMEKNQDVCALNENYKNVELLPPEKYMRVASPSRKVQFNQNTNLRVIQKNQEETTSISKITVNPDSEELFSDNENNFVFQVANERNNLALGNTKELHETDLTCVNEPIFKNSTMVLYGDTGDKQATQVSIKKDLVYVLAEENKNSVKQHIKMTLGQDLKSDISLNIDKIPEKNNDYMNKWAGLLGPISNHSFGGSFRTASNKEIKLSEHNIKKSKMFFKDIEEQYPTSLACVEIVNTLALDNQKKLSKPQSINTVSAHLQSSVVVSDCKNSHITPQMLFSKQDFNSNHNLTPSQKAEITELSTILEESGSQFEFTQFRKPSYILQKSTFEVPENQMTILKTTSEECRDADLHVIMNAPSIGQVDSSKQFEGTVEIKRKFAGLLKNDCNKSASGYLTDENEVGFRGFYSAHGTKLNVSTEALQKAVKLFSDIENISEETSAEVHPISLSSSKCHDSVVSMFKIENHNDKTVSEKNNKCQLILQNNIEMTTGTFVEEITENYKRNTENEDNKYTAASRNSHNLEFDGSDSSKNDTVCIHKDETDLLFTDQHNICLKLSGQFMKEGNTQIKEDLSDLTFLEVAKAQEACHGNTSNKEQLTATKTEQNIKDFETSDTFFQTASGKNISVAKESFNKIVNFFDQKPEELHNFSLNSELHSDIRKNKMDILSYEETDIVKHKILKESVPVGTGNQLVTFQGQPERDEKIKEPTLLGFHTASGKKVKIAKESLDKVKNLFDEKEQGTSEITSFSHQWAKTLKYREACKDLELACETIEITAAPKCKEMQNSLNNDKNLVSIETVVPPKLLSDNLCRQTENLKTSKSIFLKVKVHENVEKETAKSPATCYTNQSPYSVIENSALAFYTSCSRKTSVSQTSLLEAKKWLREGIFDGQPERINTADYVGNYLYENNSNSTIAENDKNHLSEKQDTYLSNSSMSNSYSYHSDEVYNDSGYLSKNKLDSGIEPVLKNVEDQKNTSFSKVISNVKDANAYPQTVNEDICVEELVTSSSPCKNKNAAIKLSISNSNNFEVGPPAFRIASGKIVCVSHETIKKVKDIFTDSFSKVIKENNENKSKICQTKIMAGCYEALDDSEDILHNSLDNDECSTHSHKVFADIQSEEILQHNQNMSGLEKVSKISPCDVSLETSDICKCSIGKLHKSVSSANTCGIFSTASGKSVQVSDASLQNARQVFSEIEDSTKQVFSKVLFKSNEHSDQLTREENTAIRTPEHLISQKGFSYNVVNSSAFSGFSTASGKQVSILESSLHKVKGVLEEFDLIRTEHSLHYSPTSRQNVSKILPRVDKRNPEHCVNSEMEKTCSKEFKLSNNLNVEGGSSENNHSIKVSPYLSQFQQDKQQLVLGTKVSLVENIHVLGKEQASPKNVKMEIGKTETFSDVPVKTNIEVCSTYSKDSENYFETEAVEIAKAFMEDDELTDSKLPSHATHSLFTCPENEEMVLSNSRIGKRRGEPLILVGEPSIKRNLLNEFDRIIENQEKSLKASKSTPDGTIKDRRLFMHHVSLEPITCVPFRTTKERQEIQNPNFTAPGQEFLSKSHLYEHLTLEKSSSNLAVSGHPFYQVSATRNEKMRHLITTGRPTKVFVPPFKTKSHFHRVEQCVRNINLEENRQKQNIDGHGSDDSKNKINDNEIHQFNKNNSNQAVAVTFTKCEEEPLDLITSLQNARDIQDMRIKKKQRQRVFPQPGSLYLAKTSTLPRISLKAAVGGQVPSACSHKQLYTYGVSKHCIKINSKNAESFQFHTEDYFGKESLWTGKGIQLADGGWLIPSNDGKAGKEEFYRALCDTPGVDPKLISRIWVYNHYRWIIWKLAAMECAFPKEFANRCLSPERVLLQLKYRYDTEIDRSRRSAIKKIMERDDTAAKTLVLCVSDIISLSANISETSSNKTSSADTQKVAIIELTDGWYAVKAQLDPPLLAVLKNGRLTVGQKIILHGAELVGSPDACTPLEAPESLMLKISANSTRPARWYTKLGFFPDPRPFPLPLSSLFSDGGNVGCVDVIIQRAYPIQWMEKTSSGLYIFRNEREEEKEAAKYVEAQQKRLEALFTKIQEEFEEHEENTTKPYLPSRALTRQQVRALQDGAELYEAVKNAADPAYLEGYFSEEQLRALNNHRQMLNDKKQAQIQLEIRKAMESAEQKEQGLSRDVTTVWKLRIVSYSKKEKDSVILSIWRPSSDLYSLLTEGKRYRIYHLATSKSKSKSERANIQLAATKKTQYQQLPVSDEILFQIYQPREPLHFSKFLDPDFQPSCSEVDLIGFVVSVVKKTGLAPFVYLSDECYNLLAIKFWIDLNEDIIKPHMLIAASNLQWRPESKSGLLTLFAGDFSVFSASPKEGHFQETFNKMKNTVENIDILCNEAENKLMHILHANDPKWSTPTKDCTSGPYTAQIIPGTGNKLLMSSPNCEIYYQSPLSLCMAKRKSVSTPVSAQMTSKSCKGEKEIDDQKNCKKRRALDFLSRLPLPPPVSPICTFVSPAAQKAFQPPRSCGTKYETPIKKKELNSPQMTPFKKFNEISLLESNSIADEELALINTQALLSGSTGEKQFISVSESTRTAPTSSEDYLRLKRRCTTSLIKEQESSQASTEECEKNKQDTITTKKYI

B1: LZTR1-FLAG (other, human, UniProt Q8N653 1-840, looked up)
chain: MAGPGSTGGQIGAAALAGGARSKVAPSVDFDHSCSDSVEYLTLNFGPFETVHRWRRLPPCDEFVGARRSKHTVVAYKDAIYVFGGDNGKTMLNDLLRFDVKDCSWCRAFTTGTPPAPRYHHSAVVYGSSMFVFGGYTGDIYSNSNLKNKNDLFEYKFATGQWTEWKIEGRLPVARSAHGATVYSDKLWIFAGYDGNARLNDMWTIGLQDRELTCWEEVAQSGEIPPSCCNFPVAVCRDKMFVFSGQSGAKITNNLFQFEFKDKTWTRIPTEHLLRGSPPPPQRRYGHTMVAFDRHLYVFGGAADNTLPNELHCYDVDFQTWEVVQPSSDSEVGGAEVPERACASEEVPTLTYEERVGFKKSRDVFGLDFGTTSAKQPTQPASELPSGRLFHAAAVISDAMYIFGGTVDNNIRSGEMYRFQFSCYPKCTLHEDYGRLWESRQFCDVEFVLGEKEECVQGHVAIVTARSRWLRRKITQARERLAQKLEQEAAPVPREAPGVAAGGARPPLLHVAIREAEARPFEVLMQFLYTDKIKYPRKGHVEDVLLIMDVYKLALSFQLCRLEQLCRQYIEASVDLQNVLVVCESAARLQLSQLKEHCLNFVVKESHFNQVIMMKEFERLSSPLIVEIVRRKQQPPPRTPLDQPVDIGTSLIQDMKAYLEGAGAEFCDITLLLDGHPRPAHKAILAARSSYFEAMFRSFMPEDGQVNISIGEMVPSRQAFESMLRYIYYGEVNMPPEDSLYLFAAPYYYGFYNNRLQAYCKQNLEMNVTVQNVLQILEAADKTQALDMKRHCLHIIVHQFTKVSKLPTLRSLSQQLLLDIIDSLASHISDKQCAELGADI
notes: Expressed in HEK 293T, HeLa or U87 cells; used as cell lysate; also called LZTR1 wild type-FLAG; LZTR1 WT; not shown: FLAG tag at the C-terminus
binds: SLC4A2 | ARHGEF28 | HERC2 | TTI1 | BRCA2
